The labels stand for the following.
T1: 125I-α-bungarotoxin, P60615
T1 chain: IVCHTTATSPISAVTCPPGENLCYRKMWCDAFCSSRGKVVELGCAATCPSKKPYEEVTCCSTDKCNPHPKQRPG

For 15 molecules, IC50, ACh rel % Inh @ 100 µM and Inh ACh rel IC50 results are on record in patent US20030092613A1, “Alpha7 nicotinic receptor peptides as ligands for beta amyloid peptides” (priority 2000, published 2003).

The target in the first assay is T1, 125I-α-bungarotoxin, P60615.
Test: not given
By IC50 is commonly meant the concentration at which inhibition is half-maximal. Low readings indicate greater potency in that assay, high ones weaker potency in that assay. Ac-SEAFYECCKEP-NH2 (cysteine pairing not given here) yielded an IC50 of 9.6 µM. That is a single-digit micromolar value.
Ac-IPGKRSERFYECCKEPYPDV-NH2 (cysteine pairing not given here) displayed an IC50 of 0.2 µM.
On the same count and under the same terms, in the case of Ac-SERFYECCKEP-NH2 (cysteine pairing not given here) it was 19 µM; in that of Ac-SARFYECCKEP-NH2 (cysteine pairing not given here), 8.4 µM; in that of Ac-SERAYECCKEP-NH2 (cysteine pairing not given here), over 100 µM.
As for Ac-SERFYEACKEP-NH2, the concentration for half-maximal inhibition (IC50) was over 100 µM.
Still for that read-out and setting: the result for Ac-SERFYECCKEA-NH2 (cysteine pairing not given here) reads over 100 µM.
As for Ac-SERFAECCKEP-NH2 (cysteine pairing not given here), the IC50 is over 100 µM.
The molecule Ac-SERFYACCKEP-NH2 (cysteine pairing not given here) gave an IC50 of 9.5 µM. This lies in the single-digit micromolar range.
Take Ac-SERFYECAKEP-NH2: the half-maximal inhibitory concentration (IC50) is over 100 µM.
Same read-out and setting: the result for Ac-SERFYECCAEP-NH2 (cysteine pairing not given here) reads 1.3 µM; that for Ac-SERFYECCKAP-NH2 (cysteine pairing not given here), over 100 µM; that for Ac-AERFYECCKEP-NH2 (cysteine pairing not given here), 15 µM.

The target of a further assay is β-amyloid1-42, P05067. In words: cell-based or functional assay.
As for Ac-SEAFYECCKEP-NH2 (cysteine pairing not given here), the ACh rel % Inh @ 100 µM came to 70% and the Inh ACh rel IC50 was found to be 0.277 µM.
The like results for Ac-IPGKRSERFYECCKEPYPDV-NH2 (cysteine pairing not given here) were, in that order, 73% and 0.626 µM.
The like results for Ac-SERFYECCKEP-NH2 (cysteine pairing not given here) were, in that order, 89% and 0.125 µM.
The like results for Ac-SARFYECCKEP-NH2 (cysteine pairing not given here) were, in that order, 13% and over 10 µM.
For Ac-SERAYECCKEP-NH2 (cysteine pairing not given here), the ACh rel % Inh @ 100 µM turned out to be 14% and the Inh ACh rel IC50 is over 10 µM.
In the same order, the values of Ac-SERFYEACKEP-NH2 are 19% and over 10 µM.
Turning to Ac-SERFYECCKEA-NH2 (cysteine pairing not given here), the ACh rel % Inh @ 100 µM was determined as 59% and the Inh ACh rel IC50 was under 10 µM.
In the same order, the values of Ac-SERFAECCKEP-NH2 (cysteine pairing not given here) are 18% and over 10 µM.
The molecule Ac-IPGKRSERFYECCKEPYP-NH2 (cysteine pairing not given here) yielded an ACh rel % Inh @ 100 µM of 79% and an Inh ACh rel IC50 of 0.71 µM.
Turning to Ac-SERFYACCKEP-NH2 (cysteine pairing not given here), the ACh rel % Inh @ 100 µM came out at 14% and the Inh ACh rel IC50 was over 10 µM.
In the same order, the values of Ac-GIPGKRSERFYECCK-NH2 (cysteine pairing not given here) are 73% and 1.21 µM.
In the same order, the values of Ac-SERFYECAKEP-NH2 are 85% and 0.165 µM.
In the same order, the values of Ac-SERFYECCAEP-NH2 (cysteine pairing not given here) are 19% and over 10 µM.
The molecule Ac-SERFYECCKAP-NH2 (cysteine pairing not given here) had an ACh rel % Inh @ 100 µM of 75% and an Inh ACh rel IC50 of 0.426 µM.
The molecule Ac-AERFYECCKEP-NH2 (cysteine pairing not given here) gave an ACh rel % Inh @ 100 µM of 15% and an Inh ACh rel IC50 of over 10 µM.
